Data on one molecule can be found in PMC4236683, “Semaphorin 5A inhibits synaptogenesis in early postnatal- and adult-born hippocampal dentate granule cells” (eLife, 2014).

For experiment [1], the target named is T1, full-length PlexA1 with an N-terminal 6xMyc tag (mouse, UniProt P70206 28-1894).
T1 construct: Plexin-A1, mouse, full length (FL); written as one molecule; also called PlexinA1; Myc-FL-A1; source: COS7, transiently transfected, on cells; HEK293T, transfected, in lysate; not shown: 6xMyc, N-terminal, kept
T1 sequence (P70206 28-1894): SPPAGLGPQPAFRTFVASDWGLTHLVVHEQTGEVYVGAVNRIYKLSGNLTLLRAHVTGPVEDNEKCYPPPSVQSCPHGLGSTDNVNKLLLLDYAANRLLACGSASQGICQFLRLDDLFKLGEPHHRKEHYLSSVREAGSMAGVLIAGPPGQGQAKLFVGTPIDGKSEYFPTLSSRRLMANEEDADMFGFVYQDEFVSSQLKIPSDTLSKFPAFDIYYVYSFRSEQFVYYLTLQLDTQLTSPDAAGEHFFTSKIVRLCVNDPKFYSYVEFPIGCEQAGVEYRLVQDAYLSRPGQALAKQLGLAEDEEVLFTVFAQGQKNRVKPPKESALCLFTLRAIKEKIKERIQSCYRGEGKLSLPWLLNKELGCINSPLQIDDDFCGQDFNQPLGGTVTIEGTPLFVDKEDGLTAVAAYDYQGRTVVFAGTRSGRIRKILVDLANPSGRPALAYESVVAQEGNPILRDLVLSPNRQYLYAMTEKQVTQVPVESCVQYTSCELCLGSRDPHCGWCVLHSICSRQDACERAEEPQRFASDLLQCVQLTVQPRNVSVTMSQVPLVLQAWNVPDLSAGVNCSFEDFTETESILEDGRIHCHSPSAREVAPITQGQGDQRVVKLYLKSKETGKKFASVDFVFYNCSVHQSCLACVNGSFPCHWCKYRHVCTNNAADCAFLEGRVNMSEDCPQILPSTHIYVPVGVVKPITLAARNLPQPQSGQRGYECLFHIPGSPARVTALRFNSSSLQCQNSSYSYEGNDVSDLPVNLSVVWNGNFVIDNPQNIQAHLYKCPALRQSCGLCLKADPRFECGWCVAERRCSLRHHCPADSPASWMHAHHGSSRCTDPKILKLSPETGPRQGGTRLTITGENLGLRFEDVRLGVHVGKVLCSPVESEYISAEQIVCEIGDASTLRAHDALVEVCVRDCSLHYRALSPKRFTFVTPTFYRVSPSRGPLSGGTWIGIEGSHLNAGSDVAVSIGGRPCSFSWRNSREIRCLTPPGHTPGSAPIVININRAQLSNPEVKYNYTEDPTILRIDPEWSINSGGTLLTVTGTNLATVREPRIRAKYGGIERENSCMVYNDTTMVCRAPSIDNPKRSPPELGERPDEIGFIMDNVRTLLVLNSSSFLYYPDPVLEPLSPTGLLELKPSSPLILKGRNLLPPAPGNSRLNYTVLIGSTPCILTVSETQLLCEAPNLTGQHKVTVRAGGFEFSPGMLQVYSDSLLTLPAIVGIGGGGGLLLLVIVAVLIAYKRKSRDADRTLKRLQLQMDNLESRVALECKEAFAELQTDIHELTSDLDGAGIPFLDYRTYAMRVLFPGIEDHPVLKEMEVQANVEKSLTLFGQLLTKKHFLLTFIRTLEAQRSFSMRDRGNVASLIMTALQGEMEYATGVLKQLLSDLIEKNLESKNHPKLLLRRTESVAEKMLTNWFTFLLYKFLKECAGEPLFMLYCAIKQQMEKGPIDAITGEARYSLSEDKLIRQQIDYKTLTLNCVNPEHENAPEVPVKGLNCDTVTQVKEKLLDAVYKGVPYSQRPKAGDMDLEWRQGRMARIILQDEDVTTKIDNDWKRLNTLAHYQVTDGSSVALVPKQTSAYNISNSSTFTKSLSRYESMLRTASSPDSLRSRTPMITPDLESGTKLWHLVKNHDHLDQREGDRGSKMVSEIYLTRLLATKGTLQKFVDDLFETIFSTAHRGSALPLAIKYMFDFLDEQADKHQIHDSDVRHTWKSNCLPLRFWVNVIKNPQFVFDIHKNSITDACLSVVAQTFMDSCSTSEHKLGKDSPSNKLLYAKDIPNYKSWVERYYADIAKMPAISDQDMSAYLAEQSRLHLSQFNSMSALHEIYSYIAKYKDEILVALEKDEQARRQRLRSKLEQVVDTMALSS
Briefly: saturation binding of AP-clustered Fc fusion protein to transfected cells; saturation binding curve of Sema5A-Fc, oligomerized with anti-Fc conjugated to human placental alkaline phosphatase, on COS7 cells expressing PlexA1 or PlexA2. The note with it: one partner purified.

Experiment [2] deals with T2, full-length PlexA2 with an N-terminal 6xMyc tag (mouse, UniProt P70207 35-1894).
T2 construct: Plexin-A2, mouse, full length (FL); written as one molecule; also called PlexinA2; Myc-FL-A2; source: COS7, transiently transfected, on cells; HEK293T, transfected, in lysate; not shown: 6xMyc, N-terminal, kept
T2 sequence (P70207 35-1894): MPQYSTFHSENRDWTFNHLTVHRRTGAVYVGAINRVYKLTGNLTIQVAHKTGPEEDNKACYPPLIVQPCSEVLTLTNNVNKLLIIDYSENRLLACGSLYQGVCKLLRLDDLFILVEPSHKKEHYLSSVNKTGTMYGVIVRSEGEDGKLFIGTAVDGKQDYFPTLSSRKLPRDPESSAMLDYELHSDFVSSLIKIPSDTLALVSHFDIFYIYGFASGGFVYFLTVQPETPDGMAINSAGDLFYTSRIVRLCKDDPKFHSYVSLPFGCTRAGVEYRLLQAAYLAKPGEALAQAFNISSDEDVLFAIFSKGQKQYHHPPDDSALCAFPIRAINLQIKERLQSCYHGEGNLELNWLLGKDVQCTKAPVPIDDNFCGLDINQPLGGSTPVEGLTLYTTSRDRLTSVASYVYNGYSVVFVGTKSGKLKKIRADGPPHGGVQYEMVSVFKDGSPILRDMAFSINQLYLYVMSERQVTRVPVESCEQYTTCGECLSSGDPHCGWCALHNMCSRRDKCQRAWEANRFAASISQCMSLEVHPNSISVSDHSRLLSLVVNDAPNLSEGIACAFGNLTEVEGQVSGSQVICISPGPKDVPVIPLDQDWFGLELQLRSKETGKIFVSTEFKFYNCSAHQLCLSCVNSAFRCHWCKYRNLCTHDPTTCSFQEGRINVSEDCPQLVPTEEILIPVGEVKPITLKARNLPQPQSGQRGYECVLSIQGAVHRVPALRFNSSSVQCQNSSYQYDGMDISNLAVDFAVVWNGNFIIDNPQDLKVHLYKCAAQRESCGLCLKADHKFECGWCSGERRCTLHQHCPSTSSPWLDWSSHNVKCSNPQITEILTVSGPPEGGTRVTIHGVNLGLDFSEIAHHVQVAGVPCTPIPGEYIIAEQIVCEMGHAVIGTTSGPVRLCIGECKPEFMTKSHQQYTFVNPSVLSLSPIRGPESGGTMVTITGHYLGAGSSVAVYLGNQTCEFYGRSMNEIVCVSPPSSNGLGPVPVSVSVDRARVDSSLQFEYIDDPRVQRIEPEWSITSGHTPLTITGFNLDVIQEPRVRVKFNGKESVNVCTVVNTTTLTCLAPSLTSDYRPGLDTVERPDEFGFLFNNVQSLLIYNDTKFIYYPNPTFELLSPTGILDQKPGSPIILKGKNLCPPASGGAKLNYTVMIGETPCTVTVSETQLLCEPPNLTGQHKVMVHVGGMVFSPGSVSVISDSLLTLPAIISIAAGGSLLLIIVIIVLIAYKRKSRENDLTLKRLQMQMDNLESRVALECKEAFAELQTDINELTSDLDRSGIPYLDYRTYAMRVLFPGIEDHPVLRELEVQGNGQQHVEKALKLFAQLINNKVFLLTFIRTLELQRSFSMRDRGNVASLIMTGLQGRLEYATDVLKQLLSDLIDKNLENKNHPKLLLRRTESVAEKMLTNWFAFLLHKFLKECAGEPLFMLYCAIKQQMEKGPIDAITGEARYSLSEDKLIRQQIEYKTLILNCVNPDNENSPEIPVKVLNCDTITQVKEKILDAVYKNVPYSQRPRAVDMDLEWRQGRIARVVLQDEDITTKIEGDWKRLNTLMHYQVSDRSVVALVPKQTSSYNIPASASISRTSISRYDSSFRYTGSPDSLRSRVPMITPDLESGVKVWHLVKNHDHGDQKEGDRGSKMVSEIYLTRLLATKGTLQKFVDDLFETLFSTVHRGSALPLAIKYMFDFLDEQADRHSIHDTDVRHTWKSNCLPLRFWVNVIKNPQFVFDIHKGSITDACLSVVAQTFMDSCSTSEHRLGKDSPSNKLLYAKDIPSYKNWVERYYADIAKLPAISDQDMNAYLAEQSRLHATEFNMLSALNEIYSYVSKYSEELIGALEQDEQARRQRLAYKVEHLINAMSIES
Described as above. The note with it: one partner purified.

B1: Sema5A-Fc (Sema5A ectodomain fused to Fc) (Fc fusion, rat, UniProt D3ZTD8 23-961, looked up)
chain: ETQDPAKCQRAEHPVVSYKEIGPWLREFRAENAVDFSRLTFDPGQKELVVGARNYLFRLQLEDLSLIQAVQWECDEATKKACYSKGKSKEECQNYIRVLLVGGDRLFTCGTNAFTPVCTIRSLSNLTEIHDQISGMARCPYSPQHNSTALLTASGELYAATAMDFPGRDPAIYRSLGTLPPLRTAQYNSKWLNEPNFVSSYDIGNFTYFFFRENAVEHDCGKTVFSRAARVCKNDIGGRFLLEDTWTTFMKARLNCSRPGEVPFYYNELQSTFFLPELDLIYGIFTTNVNSIAASAVCVFNLSAISQAFNGPFKYQENSRSAWLPYPNPNPNFQCGTMDQGLYVNLTERNLQDAQKFILMHEVVQPVTTVPSFMEDNSRFSHVAVDVVQGRDTLVHIIYLATDYGTIKKVRAPLSQSSGSCLLEEIELFPERKSEPIRSLKILHSQSVLFVGLQEHVVKIPLKRCHFHQTRGACIGAQDPYCGWDAVMKKCTSLEESLSMTQWDQSVPTCPTRNLTVDGSFGPWSPWTPCTHTDGTAVGSCLCRSRSCDSPAPQCGGWQCEGPRMEITNCSRNGGWTPWTSWSPCSTTCGIGFQVRQRSCSNPTPRHGGRVCVGQNREERYCNEHLLCPPHVFWTGWGPWERCTAQCGGGIQARRRTCENGPDCAGCNVEYQPCNTNACPELKKTTPWTPWTPVNISDNGGHYEQRFRYTCKARLPDPNLLEVGRQRIEMRYCSSDGTSGCSTDGLSGDFLRAGRYSAHTVNGAWSAWTSWSQCSRDCSRGIRNRKRVCNNPEPKYGGMPCLGPSLEFQECNILPCPVDGVWSCWSSWSKCSATCGGGHYMRTRSCTNPAPAYGGDICLGLHTEEALCNTQTCPENWSEWSEWSVCDASGTQVRTRQCILLFPVGSQCSGNTTESRPCVFDSNFIPEVSVARSSSVEEK
notes: signal peptide in the construct; Sema5A ectodomain, rat cDNA NM_001107659, residues 1-961; Assembled in pcDNA3.0; also called Fc-tagged Sema5A ectodomain protein
What is called Kd is the free concentration of one partner at which half of the binding sites on the other are occupied at equilibrium, for simple one-to-one binding. Lower therefore signals a tighter complex. For B1, the Kd in experiment [1] came to 10 nM; in experiment [2], 13 nM.
